Data as given in article PMC3364985, “Staphylococcus aureus Surface Protein SdrE Binds Complement Regulator Factor H as an Immune Evasion Tactic” (PLoS ONE, 2012).

B1: complement regulatory protein factor H (natural protein)
chain: EDCNELPPRRNTEILTGSWSDQTYPEGTQAIYKCRPGYRSLGNVIMVCRKGEWVALNPLRKCQKRPCGHPGDTPFGTFTLTGGNVFEYGVKAVYTCNEGYQLLGEINYRECDTDGWTNDIPICEVVKCLPVTAPENGKIVSSAMEPDREYHFGQAVRFVCNSGYKIEGDEEMHCSDDGFWSKEKPKCVEISCKSPDVINGSPISQKIIYKENERFQYKCNMGYEYSERGDAVCTESGWRPLPSCEEKSCDNPYIPNGDYSPLRIKHRTGDEITYQCRNGFYPATRGNTAKCTSTGWIPAPRCTLKPCDYPDIKHGGLYHENMRRPYFPVAVGKYYSYYCDEHFETPSGSYWDHIHCTQDGWSPAVPCLRKCYFPYLENGYNQNYGRKFVQGKSIDVACHPGYALPKAQTTVTCMENGWSPTPRCIRVKTCSKSSIDIENGFISESQYTYALKEKAKYQCKLGYVTADGETSGSITCGKDGWSAQPTCIKSCDIPVFMNARTKNDFTWFKLNDTLDYECHDGYESNTGSTTGSIVCGYNGWSDLPICYERECELPKIDVHLVPDRKKDQYKVGEVLKFSCKPGFTIVGPNSVQCYHFGLSPDLPICKEQVQSCGPPPELLNGNVKEKTKEEYGHSEVVEYYCNPRFLMKGPNKIQCVDGEWTTLPVCIVEESTCGDIPELEHGWAQLSSPPYYYGDSVEFNCSESFTMIGHRSITCIHGVWTQLPQCVAIDKLKKCKSSNLIILEEHLKNKKEFDHNSNIRYRCRGKEGWIHTVCINGRWDPEVNCSMAQIQLCPPPPQIPNSHNMTTTLNYRDGEKVSVLCQENYLIQEGEEITCKDGRWQSIPLCVEKIPCSQPPQIEHGTINSSRSSQESYAHGTKLSYTCEGGFRISEENETTCYMGKWSSPPQCEGLPCKSPPEISHGVVAHMSDSYQYGEEVTYKCFEGFGIDGPAIAKCLGEKWSHPPSCIKTDCLSLPSFENAIPMGEKKDVYKAGEQVTYTCATYYKMDGASNVTCINSRWTGRPTCRDTSCVNPPTVQNAYIVSRQMSKYPSGERVRYQCRSPYEMFGDEEVMCLNGNWTEPPQCKDSTGKCGPPPPIDNGDITSFPLSVYAPASSVEYQCQNLYQLEGNKRITCRNGQWSEPPKCLHPCVISREIMENYNIALRWTAKQKLYSRTGESVEFVCKRGYRLSSRSHTLRTTCWDGKLEYPTCAKR
notes: complement factor H, human, 155 kDa plasma protein; the assay's purified field tells the two apart; also called fH; purified fH; source: bought: CompTech (purified fH)

Experiments:
[1] = molecular target: recombinant SdrE (6×His-tagged A region of serine-aspartate repeat-containing protein E) (S. aureus); assay: far-Western, overlay or dot blot; 5 µg of rSdrE, rClfA and BSA adsorbed to a PVDF membrane, blocked with 3% BSA/TBST, overlaid with purified fH (20 µg fH/10 ml block buffer) overnight; anti-fH, ECL, optical densitometry against a purified fH dilution series
[2] = molecular target: T1, SdrE expressed on the surface of Lactococcus lactis (pKS80-SdrE) (S. aureus, UniProt O86489 53-1132); assay: far-Western, overlay or dot blot; whole L. lactis (pKS80-SdrE or pKS80) immobilised on a PVDF membrane, overlaid with 5% HI-serum in 0.05% gelatin/PBST for 1 hr; anti-fH, optical densitometry against a serum dilution series; conditions: partners not purified
T1 construct: Compared throughout with L. lactis carrying the empty vector pKS80; also called L. lactis (pKS80-SdrE); SdrE-expressing L. lactis; source: L. lactis, constitutively expressed from pKS80, on the bacterial surface

[3] = molecular target: T1, SdrE expressed on the surface of …; assay: binding to whole bacteria in solution, SDS extraction, fH ELISA; L. lactis (OD600 = 4.0) in GVBS^++ with various amounts of HI-serum, 1 hr, 37°C; bound proteins extracted with 2% SDS; fH ELISA with chicken antibodies specific for human fH; conditions: partners not purified

T1 sequence (O86489 53-1132): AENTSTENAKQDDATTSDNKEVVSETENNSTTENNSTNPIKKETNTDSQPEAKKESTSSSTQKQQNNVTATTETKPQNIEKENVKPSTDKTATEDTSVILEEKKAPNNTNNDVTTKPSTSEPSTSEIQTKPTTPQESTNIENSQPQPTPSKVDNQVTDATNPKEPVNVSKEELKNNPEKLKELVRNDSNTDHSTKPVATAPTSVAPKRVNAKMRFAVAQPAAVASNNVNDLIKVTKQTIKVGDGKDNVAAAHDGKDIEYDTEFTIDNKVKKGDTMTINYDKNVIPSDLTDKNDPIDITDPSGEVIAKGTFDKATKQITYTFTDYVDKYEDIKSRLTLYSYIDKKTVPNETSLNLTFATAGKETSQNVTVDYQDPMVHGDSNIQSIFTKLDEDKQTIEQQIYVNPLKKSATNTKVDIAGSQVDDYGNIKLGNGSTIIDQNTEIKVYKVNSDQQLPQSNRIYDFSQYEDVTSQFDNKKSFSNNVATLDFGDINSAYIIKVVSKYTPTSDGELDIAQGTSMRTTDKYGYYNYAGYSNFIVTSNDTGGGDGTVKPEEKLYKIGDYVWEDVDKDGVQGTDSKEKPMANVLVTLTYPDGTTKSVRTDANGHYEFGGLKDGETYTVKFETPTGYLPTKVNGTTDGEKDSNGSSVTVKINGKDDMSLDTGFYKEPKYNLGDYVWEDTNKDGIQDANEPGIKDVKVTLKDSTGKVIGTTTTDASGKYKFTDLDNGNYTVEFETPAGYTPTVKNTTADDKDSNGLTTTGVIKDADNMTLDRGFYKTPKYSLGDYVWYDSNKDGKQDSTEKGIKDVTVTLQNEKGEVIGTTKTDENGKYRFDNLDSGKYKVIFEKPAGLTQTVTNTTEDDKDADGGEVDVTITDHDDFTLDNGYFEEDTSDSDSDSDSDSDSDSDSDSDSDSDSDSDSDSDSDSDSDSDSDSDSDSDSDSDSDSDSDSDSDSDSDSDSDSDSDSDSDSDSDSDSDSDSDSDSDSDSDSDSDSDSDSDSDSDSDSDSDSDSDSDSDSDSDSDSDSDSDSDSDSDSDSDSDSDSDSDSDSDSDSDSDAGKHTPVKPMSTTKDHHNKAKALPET
Sequence of recombinant SdrE (6×His-tagged A region of serine-aspartate repeat-containing protein E) (S. aureus) (O86489 53-606 limits assumed): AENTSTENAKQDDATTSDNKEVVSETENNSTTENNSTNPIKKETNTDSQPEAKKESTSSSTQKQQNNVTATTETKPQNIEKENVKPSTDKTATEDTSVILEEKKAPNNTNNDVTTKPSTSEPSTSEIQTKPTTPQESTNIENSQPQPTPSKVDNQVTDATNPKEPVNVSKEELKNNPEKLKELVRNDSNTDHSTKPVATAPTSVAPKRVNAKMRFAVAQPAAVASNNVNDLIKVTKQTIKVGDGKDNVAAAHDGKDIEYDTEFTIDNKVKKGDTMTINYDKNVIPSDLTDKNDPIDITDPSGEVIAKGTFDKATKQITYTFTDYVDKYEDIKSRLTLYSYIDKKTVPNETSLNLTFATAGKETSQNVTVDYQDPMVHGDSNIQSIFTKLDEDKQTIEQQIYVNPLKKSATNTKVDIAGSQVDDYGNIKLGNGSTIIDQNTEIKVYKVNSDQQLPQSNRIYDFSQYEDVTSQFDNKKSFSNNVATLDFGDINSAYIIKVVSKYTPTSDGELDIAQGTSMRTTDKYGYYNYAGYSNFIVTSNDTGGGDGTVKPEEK

Molecule | amount of fH bound [1] | fold more serum fH bound than on L. lactis (pKS80) [2] | fold more serum fH bound than on L. lactis (pKS80) [3]
complement regulatory protein factor H (from UniProt P08603 19-1231) (natural protein) | 2.2 ng | – | –
B1 | – | 4 fold | ≤ 4 fold
